The nature of the data set: soluble on expression in E. coli; label from the status in PepcDB or PDB records.
With “QKVPAPVDGERIIMELSEADVECTIKIEAEDGYANDIWADLNGNGKYDSGERLDSGEFRDVEFRQTKAIVYGKMAKFLFRGSSAGD”, the “soluble on expression in E. coli” value is on record as “not soluble”.
On to “MGSDKIHHHHHHMRLRRLPVYVDAYKEKPNAEIFIYYSSRGTGKTYDIATVNLERKFSADGGDTLAIRKKKNKTTQSIHKEILELLSIYNLRKFFNISKAKIESKSLIFGKKRAFVFEGGHDTRDLKSYAHFKDLWLEEANQFSADDIEMLVPTMREQGGRIYMSSNPVPKSHWLYKRYLSNQDNPAVCIIKSTYRDNPFLNGGDVQAWLEKQRLAYHGNDIGFRIEVLGEEFDFGTARLIKKFNVCGPEILSRANGSYYTGIHVKGNRICFLEILVGRISYLPVVIITNACSKVLLSKTDYQSEINKFKGVFVLPTAREELKYVFSRFGRGTLLAKKRNLYSLSDYLIPSNLNVVNKPETTDVISEFNETEYYYDESSAEDSEVTNFVMQKDLVYIPAFLNAISVFS”, for which the “soluble on expression in E. coli” value is given as “not soluble”.
As for “QIQLVQSGPELKKPGETVKISCKASGYTFTDYSMYWVKQAPGKGLKRMGWINTETGEPTYADDFKGRFALSLDTSASTAYLHISNLKNEDTATYFCARGLDSWGQGTSVTVSSAKTTPPSVYPLAPGCGDTTGSSVTLGCLVKGYFPESVTVTWNSGSLSSSVHTFPALLQSGLYTMSSSVTVPSSTWPSQTVTCSVAHPASSTTVDKKLEPS”, the “soluble on expression in E. coli” value was “soluble”.
For the sequence “MGAAAAMLAAVLLLTPITVPAGYPGAVAPATAACPDAEVVFARGRFEPPGIGTVGNAFVSALRSKVNKNVGVYAVKYPADNQIDVGANDMSAHIQSMANSCPNTRLVPGGYSLGAAVTDVVLAVPTQMWGFTNPLPPGSDEHIAAVALFGNGSQWVGPITNFSPAYNDRTIELCHGDDPVCHPADPNTWEANWPQHLAGAYVSSGMVNQAADFVAGKLQ”, the “soluble on expression in E. coli” value is “not soluble”.
The value for “MNMSSEMLPASIESPNVEEKLGTSDGEEERQEPRVDAGAEPISKRQLKKLMKQKQWEEQREQRKEKRKEKRKRKKLERRQLESNSDGNDRKRVRRDVARSSLRLVIDCSFDDLMVLKDIKKLHKQIQRCYAENRRASHPVQFYLTSHGGQLKKNMDENDQGWVNWKDIHIKSEHYSELIKKEDLVYLTSDSPNVLKDLDESKAYVIGGLVDHSHHKGLTFKQATSYGIEHAQLPLADFVKMNSRKVLAVNHVFEIILEFLETRDWQEAFFTILPQRKGAVPAHKACESSPQDHQSLPEGWDSASEGESCRDNPDSPQKDEQGQQSSPVLQ” was “soluble”; that for “MGSDKIHHHHHHMSSRNRIIWREGLFIKPQHFQQQQRHTDYALHARLSALSDYFYGLQSLAINEEYLNFGRIALVNASGVMPDGTVFNIPGDDALPLPLEITDVALANQKVYLALPLAVNGVSEVGQPGQGIASRLQSHRHDVRDLHSDGGDIVSLEVGKVSLRLMLDRDDRSAYASLAIANILDKRPDGGLILDPNFMPCSISVTAIPTLKRFLGESAGLVAERARSLAQRIAAPGQQGVADVAEFMMLQLLNRAQPKLSHLARLGTLHPERLHETLVELCGELMTFTDESRLPPEFPAYRHEHQQASFEPLMMALRQALSTVLSPRAVSIQLKKQPYGVMVAMVGDAELMTSAEFVLAVRARMPQEHLRKQLLQQTKIASSEKIRELISLQLPGIPLLPLPVAPRQLPYHAGYSYFQLDRQSPAWQVLVSGNTLAFHIAGEFPELDMQLWAIRGQ” was “not soluble”; that for “MGSDKIHHHHHHMETREAIFGRRSIRKYLDKPIEPEVLQDILEGAVMAPSAVNNQPWYFLAIKSQEQMEKLRGIFQEVSVKTKAVLEKRFPNNPEVVSETLGFLTSLGNARVCVLVFLLKPSKDYDIIAVESTSAAIQNLCLVAYDKGIGSCWMTAPLSTGFGDVLEKTFAPGKGKFIAAVTLGYPAVSPQAPKRKAGRYEII” was “not soluble”.
To “MASCVLTHSPPPPMTAKSPPIPAPSPEQIGLRIRALRKRQKRTLAWLSAQCGLDKGFLSRLERGEKSASVGTLHTVAGALGSSLSALLGEADPQTEIQIVRAADRHRMTTAPGPGEHIYEAITLGSSHSGLSVMVVEVGTHGAHTEAHHGGDELIFVLDGRIRVHFGGHTVLLERDDSVRFPGYLPHSLSAEGRKLARALVVIASG” belongs “not soluble”; to “MSLSVEAMIGQLNAEIKRLDRLIRSHLNQHPELKKDFDLLTSIKSVGYQLGLNMLVILRSHDFATAEQAAAFLGVVPVEKYSGTSVRGCPKLSKIGPPEIRAKLYLASLCGLRFNPLMKAMYERLCLRGKGKMCAIGALMRKLVHWCYGVLKTQKPFDVGYLSSYARSACKAAEGHHHHHH”, “soluble”; to “GAMALVDGFLELERSSGKLEWSAILQKMASDLGFSKILFGLLPKDSQDYENAFIVGNYPAAWREHYDRAGYARVDPTVSHCTQSVLPIFWEPSIYQTRKQHEFFEEASAAGLVYGLTMPLHGARGELGALSLSVEAENRAEANRFMESVLPTLWMLKDYALQSGAGLAFEHPVSK”, “soluble”.
To “MDNKIVYVVSDSVGETADLVVRAAMGQFPFAPDIRRVPYVEDTGTLKEVISIAKSNQALICFTLVKPDMRQYLVTEAAKEGVEAYDIIGPLIDQIEEITGQVPRYEPGVVRRLDEEYFKKIEAIEFAVKYDDGRDARGILKADIVLIGVSRTSKTPLSQYLAHNKRLKVANVPLVPEVDPPEELYQVAKEKCFGLKITPDKLNHIRKERLKSLGLSDGATYANINRIQEEIDHFEEVISRINCQVIDVSNKAIEETANIIVNAVQNQKMF” belongs “not soluble”; to “MTTAFFVAADWLAEHIDDPEIQILDARMAPPGQEHRDMAGEYRAGHIPGALFFDIEALSDRASPLPHMMPRPEAFAVAMRELGVRQDKHLVIYDEGNLFSAPRAWWMLRTFGAEKVSILAGGLAGWQRDEWLLREGEEAHEGGEFEAKFAPQAVVRLTDVLLASHEKTAQIVDARPAARFNAQADEPRPGLRRGHIPGALNVPWTELVYEGELKTTDELNEVFFSHGVSFDRPIIASCGSGVTAAVVVLALATLDVPDVTLYDGAWSEWGARTDLPVEPA”, “not soluble”; to “GLGGFTRTRNKGKSNVIDMIQKYIESKGMPIENWDITVGYCTNLEEAEKYRDDVEAQLGVKLLERREDFKTRISIISGCHTGPYALGIACIPKYTTIRL”, “not soluble”.
Regarding “MSLDHRKRESINDKNKMKVYTTVYAFQSLTQQIGGKYVDVQSIYPDGADLHSYEPTQKDMIDIAKSDLFVYSSHQLDPVAAKITNSMTNNSMKLALAEGLKQSDFIDSKGHDEDHEHHSHHEESNQDPHVWLDPVLNQKFAFMIKEKLIEKDPKHQAYYNKNYKMVNKDIVHIDQQLQSITKHSKRDKVVISHDSLGYLAHRYGFKQQGVKGMNDEEPSQKEILNIVKDIQHSHAPYVLYEQNITSKITDVIKKETDTKPLSFHNLAVLTKEEQNDDSISYQSLMKKNIYVLNRALNNEGHHHHHH”, the “soluble on expression in E. coli” value is reported as “soluble”.
To “ALRGTVTDFSGFDGEADAEVLEKAMEGLGTDEDSILNLLTARSNAQRQQIAEEFETLFGRDLVNDMKSELTGKFEKLIVALMKPSRLYDAYELKHALKGAGTDEKVLTEIIASRTPEELRAIKQAYEEEYGSNLEDDVVGDTSGYYQRMLVVLLQANRDPDTAIDDAQVELDAQALFQAGELKWGTDEEEFITILGTRSVSHLRRVFDKYMTISGFQIEETIDRETSGNLENLLLAVVKSIRSIPAYLAETLYYAMKGAGTDDHTLIRVIVSRSEIDLFNIRKEFRKNFATSLYSMIKGDTSGDYKKALLLLSGGEDD” belongs “soluble”; to “MSLSRGAGEAAYRQRLVAVGDLHGDIDNAKKTLQMARIIDDDSKWVASTDILVQTGDIVDRGAYADDIYRLMQSLRGQAASQGGKVVSILGNHEVMNAIGDWRYVTKGDIARFGGTKSRQHALSAEGWLGQEWLANYSTTALVPISPYPSSPTFSFTHGSLRPSYANLTPYPAAINDLGHSLLTKALTPPMAPPYPPNPYSGLPKGTTHEEADLYAEGGPLWWRGLAEREEAQVCEWAKNLKQKIGARRIIGGHTPNFEKIVARCNASVIIIDTGISSAYGGVLSALEIVYTLTPVDRRGRDHSQDPLLLSTSSESIAGLKGRFVEREEVHAIYEHSRKWLALEEREVVLDEGHHHHHH”, “not soluble”.
The value for “VFDWDGTLVDSIARIVDSMKAAARETALPERGDTRIKGIIGLGLPEAIASLYPEVGDPALVERFRCAYSEHYLAQEAQPSRLFPGVAEAMVHFREAGFRLAVATGKSRRGLDRVLAGHGWSDFFDITRCADETASKPDPLMLHEILAHCRVEPGRALMIGDSPFDLEMARRAGMDSVAVAYGAQSLEQLRPYAPRLEVEHFTELRAWLGGARREAVS” was “not soluble”.
Take “MEEKVYLDKLAKRDIKPTAIRLLILKSMMEAGRAVSQLDLETLLDTVDKSTISRTITLFLSHHLIHSIDDGSGSWKYAVCDDSCNCVLKDLHSHFYCEKCHRTFCLEKIHIPVIDLPKGFTLHSVNYVVKGVCAECSKV”: the “soluble on expression in E. coli” value was “not soluble”.
For the sequence “MRNSTDYSPLYRSFIGFDHLASLIDKASQPGKQSSYPPYNIELLAENQYRITMAVAGFREEDIDIESKDNGLIIVGTKQPPANSTQESEATTRHFLHQGIAERNFERKFQLGEHVKVIGAFMENGLLHVDLEREIPEALKSRKIAINGKSLLNGNS”, the “soluble on expression in E. coli” value is given as “not soluble”.
To “MNIQLSPLEARVIGCLIEKEVTTPDHYPLTLNSLTTACNQKSNREPVLNLSEAEVQDTVEGLIARRLVSDESSFNSRTSKYQHRFCNTEFGDLKLNQQELGLICCLLLRGAQTPGELRTRTNRLCTFTDVKETEAVLERLANRDSGALVVKLPREPGKRESRYHHLFCGEVDMAA” belongs “soluble”.
To “MLDLQGLEEIANVQMQLENIISKLNIPIIQKGVFDNEGYLKSIMRGMRDYICFKTSKKKYKTIKAQNVIIHPGSLISTDSVKYFVAGEIIETTKMYARSIGVLKKEWIDDIILNEEFKHNDISSKELEHHHHHH” belongs “not soluble”; to “MLSTLSKSARLNQTRFIRLSHSAAAAKDAKPKKVAAVDSPSFVMNLFRGKAVTDQVFPYPLNMTDEQKETLGMVMSPLEKMLVEVNDVVKNDETSDIPRAVLDQFAELGTFGVLVPPELEGSGFNNSQMARVAEIVGAYDLGFGVVMGAHQSIGYKGILLEGTDAQKQKYLPDLATGRKFAAFALTEPTTGSDASSVRTRAELSADGKHYVLNGGKIWISNGGFADVFTVFAQTPVKQADGSTKDKMSAFIVERAFGGVTSGPQEKKMGIKGSNTTEVHFDNLKIPVENLLGKEGEGFKVAMNILNNGRFGIPAACTGAMKHCIQKTVDHITTRVQFGKKLQEFGNIQEKLVEMISKLYATESIVYMLSSNMDRGIKEYQLEAAIGKVLASENAWLVCDDAIQVHGGMGFMRETGLERVLRDLRIFRIFEGANDVLRLFIALTGAQHAGKHLAEQASGVGGLIGLAVSRVTGGNTGSNFGQVVDASLQDSAKVLDQQIALFGQTVQGLLMKHKKGIIDRQYEMHRVADAAINIYSSAAVLSRATYAIKNKSSSADFERKVATYYVDKAMKSSNRFLKDAGSGVENASKVATIESLAKEVCGNGGLTLQHPVEL”, “not soluble”.
To “MATFSISAMAAQCGVTTANIRSWERYGLLQPTKDEAGNRFYCIEDAIRIQHIIDALSKGFSLKEIKPALYGEETHCRSGWLFYQEEILAQCRKFEPAKLRKLLWRYGREIPPCIVIESILRPLRLWLSAGDDDARRFEKALLDTAIIEYATFQLSSVRKAPAGTMLIAAFSLNDPIELWLETIKYCSEGMRVEVIPWQAPMPDLLSTSFEHIVLWHDETLTPAQENLIQALKESGKFSLHVKNGSGLTLLPAVYRQHEMPESMQHVAPQIHANGYEKSGTAR” belongs “not soluble”.

The values above are taken from the DeepSol protein solubility set.
